Values quoted from earlier work, collected in article PMC4440831 (Chembiochem : a European journal of chemical biology, 2015).

Target: CXCR4 receptor (Homo sapiens, UniProt P61073)
Conditions: earlier work of the same group

CXCR4 receptor, sequence (P61073 whole entry): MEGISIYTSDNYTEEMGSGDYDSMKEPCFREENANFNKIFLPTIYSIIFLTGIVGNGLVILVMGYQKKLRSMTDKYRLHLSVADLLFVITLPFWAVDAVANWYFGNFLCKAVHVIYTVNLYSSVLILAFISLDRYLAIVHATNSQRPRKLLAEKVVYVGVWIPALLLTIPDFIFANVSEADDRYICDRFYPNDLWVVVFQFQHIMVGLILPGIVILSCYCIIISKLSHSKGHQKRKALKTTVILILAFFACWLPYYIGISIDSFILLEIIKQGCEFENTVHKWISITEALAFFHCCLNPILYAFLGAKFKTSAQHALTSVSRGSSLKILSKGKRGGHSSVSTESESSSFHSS

## MCoTI-I: empty scaffold cyclotide (SGSDGGVCPKILQRCRRDSDCPGACICRGNGYCG; not fully specified; Trypsin inhibitor 1; UniProt P82408 1-34, looked up)
  CXCR4 inhibitory activity, result in words: no inhibitory activity
